Here are results for 2 substances from article PMC8626645 (Molecular Pharmacology, 2021).

For data set [1] the following is noted: in vivo; cited from earlier work. The text has this:
Pathologic increases in blood glucose, the central metabolic defect in T2D, occur chiefly because of failure of pancreatic β cells to release enough of the glucoregulatory hormone insulin and overweight-related tissue resistance to insulin action.

Data set [2] has as its target SNAP-GLP-1R (HEK293-SNAP-GLP-1R cells) (UniProt P43220). Kind of data set: FRET or BRET. Background: In BRET a luciferase serves as donor, and the signal depends on an acceptor being close.
Sequence of UniProt P43220 (P43220 24-463): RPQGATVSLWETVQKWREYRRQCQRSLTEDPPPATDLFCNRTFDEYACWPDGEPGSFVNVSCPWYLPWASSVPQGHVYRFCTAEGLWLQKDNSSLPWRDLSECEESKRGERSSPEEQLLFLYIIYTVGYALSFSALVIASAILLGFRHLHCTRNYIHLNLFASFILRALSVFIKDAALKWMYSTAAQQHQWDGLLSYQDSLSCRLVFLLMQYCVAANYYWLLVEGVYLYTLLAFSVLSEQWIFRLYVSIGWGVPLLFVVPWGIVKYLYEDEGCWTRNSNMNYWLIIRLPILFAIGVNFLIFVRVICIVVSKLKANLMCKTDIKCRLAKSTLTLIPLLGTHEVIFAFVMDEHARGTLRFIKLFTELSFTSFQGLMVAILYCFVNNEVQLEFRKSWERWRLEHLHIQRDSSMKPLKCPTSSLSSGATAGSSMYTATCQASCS

In the case of “GLP-1(7-36)NH2: the endogenous ligand for GLP-1R”, the “inactivation in the circulation” value in data set [1] is reported as “enzymatically inactivated in the circulation within minutes”.

In turn, “exendin-4 (from UniProt P26349 48-87) (peptide)” gave a Log Ki (M) in data set [2] of -9.2 log M.
